The values that follow come from the DeepSol protein solubility set.

This series is described as follows: soluble on expression in E. coli; label from the status in PepcDB or PDB records.
Consider “MTFSDPMDPSIPIFQHHEEEEAGPSTTIKAEEEDGPCCLVCGRVANTGHHYGVTACLGCKTFFRRVVLQKNSPKCKYKNHCRLEKSVNAKRLCRSCRYQKCLEVGMTEDALHPCRDVIGRRVRNNSSDSSPISSPPSIPTPLSICKLMNLSEGDHKLLQTITDMDTDIRTRTAHILGEPANGNEQIHFYSPTPDYTNVIVNHGIGPSLKVDILLLREWVDRIPGFRELSERFQQHLMHRFCLRYTVIEHGLFTAQMPYHKNVWFLSDRTCLVSEFENLPQEIKKHLTPKVINEQQLLASFTEMLIHEVADPLRRLKPDSVEVATVKTLMLLKPTCLREIDGDYLSTETDIKSVNDVRNRVINGLYSHYIKNGMDPEQLPIRVSEILNLTGGVEQCAARALEEMHPTRVFNLSSFDPYSSNVIFGYYRDV”, for which the “soluble on expression in E. coli” value was “not soluble”.
As to “MTGALAMMPSTSSPYPLLAPPTCSSRLPPLRCFVGLRWSAPRIQVREYPDAVAGIAKGAGGRGGRFRAPASSISQPCSRTIIITNEHVQNADFPPNYSKREKKPFPIPVLELRRRAKERAKKAEGKPKRSLPPPKNGMLIKRLIPVAYKVYNARILLINNLKRLMKVIPVKGCKHCSEIHVGSVGHPFRTCKGMSSDKRRGQHDWGGTLVEAVFVPVEAYHLEDRLGKRIPHDQRFAVPRIPALVELCIQAGVNLPEYPTKRRRKPIIKIGKNEFVDANEDDLPDPEPYKLEHPILEELNDNEIIAPASPEEIVALAEETLEAWEVVRDGALKLMKGYAVRVCGYCPEVHIGASGHKARNCGAFKHQQRNGQHGWQAAVLDDLIPPRYVWHLPESGEDLQRDLKSFYGQAPAIVEICVQAGAKVPEKYKATMRLDIGIPTSLREAEMVV”, the “soluble on expression in E. coli” value is recorded as “not soluble”.
The same measure for “MTGIREGEKELSLLGSKTEYRNDYAPEVLEAFTNKHQENDYWVRFNCPEFTSLCPITGQPDFATIYINYIPDVKMVESKSLKLYLFSFRNHGAFHEDCVNIIMKDLIALMQPRYIEVWGDFTPRGGISIVPFCNYGKPGSRYELLAEKRMETHH”: “not soluble”; for “MTIAYEHPNALTYLKSMKENIIRFANKKSLYTQHDEYIKNVFMDERVNLKYHCESIVSYIAEAFIHYSVWDHSHAYYPGRPSQQTARTDALEGTSRTLPTLAAWLHANGRSNTIITGLNQQPILVPEILRKAFLAGTNPQHKGYWGTLHHCDQRVCEGADLALALWMSKEWVWDCFSIDEKCQIITWFKQVNQCETVDNNWHLFVLTVQIVLKALTGEDEVQYDKYERVKEFYVGDGWFRDGAKGNYDYYNAWAFHYSLYWFTQIDVDFDSTFINNALSDFVGNYRYFFGKEGFPFFGRSACYRLAAAAPLLAAVDLQSDKITIGEAKRAFHCNLKYFISNGALKAGLPTQGLFDEDVRLVDNYSGPASSLWSLRALNIALFCGEKINLWQAEEAPLAIEQGNFELDISAINMKILGVYETQEVIAIFKNEYTQDQSPLSRRLLAPSLEHHHHHH”: “soluble”.
With “MTIPEQNNNPIVEISIPVSTQQALEKVNATKSAWLEARRQQKAAADNIATIRQRRAEMEATTNALNEEWRTLFRESQGVVSKEMKKLRTEIALGRETLEDFDELLAAQESENALLPQEAAELAGKYIHAHDTLVGIRAKQIWEDFMQSHGKALIQTLSLLKSTMGREASAVVGVVHSVNDPDTLLKDFIHKHITRPALTNDAMPEQDPVFKLAGVAPDYAARLDFSNKLSPAAMHKMKVRQERAEKEKAV” the entry was “soluble”; with “MTIRMIPHPIFSSPTKRRREKPDPPARAGAAQPSGPARMTPQQQTEWQQRLIALLESQPPDDDGAHDLSHLHRVWAVARTLLAHYPDADSIVVMAGSYLHDLVNLPKNHPQRQLASHWSAERARQLLADSGLTEAQLDNLAHAIEAHSYSAAIPPRTLEARIVQDADRMDALGPVGLARMFYVSGRMGRALAHPLDPLAEHRGRDDQAWAIDHIDVKLAKLPGMMQTEAGRAMAERKLEWLFHFRDEFCRDWMARLEHHHHHH”, “soluble”.
Regarding “MTISRTQQIQQLEQEWTSPRWKNITRPYSAEDVIKLRGSVNPECTFAQNGAKKLWELLHGGSRKGYINCLGALTGGQALQQAKAGVEAIYMSGWQVAADANTASSMYPDQSLYPVDSVPAVVKRINNSFRRADQIQWSNNIEPGSKGYTDYFLPIVADAEAGFGGVLNAFELMKAMIEAGAAGVHFEDQLAAVKKCGHMGGKVLVPTQEAIQKLVAARLAADVLGVPTLLIARTDADAADLLTSDCDPYDREFITGDRTAEGFFRTRAGIEQAISRGLAYAPYADLVWCETSTPDLALAKRFADAVHAQFPGKLLAYNCSPSFNWKKNLTDQQIASFQDELSAMGYKYQFITLAGIHSMWFNMFDLAHAYAQGEGMKHYVEKVQQPEFASVDRGYTFASHQQEVGTGYFDKVTNIIQGGASSVTALTGSTEEQQF”, the “soluble on expression in E. coli” value was “soluble”.
The same measure for “MTITSLDGYRWLKNDIIRGNFQPDEKLRMSLLTSRYALGVGPLREALSQLVAERLVTVVNQKGYRVASMSEQELLDIFDARANMEAMLVSLAIARGGDEWEADVLAKAHLLSKLEACDASEKMLDEWDLRHQAFHTAIVAGCGSHYLLQMRERLFDLAARYRFIWLRRTVLSVEMLEDKHDQHQTLTAAVLARDTARASELMRQHLLTPIPIIQQAMAGN”: “soluble”; for “MTKAKDLTGKKIAILAADGVEEIELTSPRAAIEAAGGTTELISLEPGEIQSMKGDIEPQEKYRVDHVVSEVQVSDYDGLLLPGGTVNPDKLRLEEGAMKFVRDMYDAGKPIAAICHGPWSLSETGIAQGLKMTSWSSLKRELTLAGAQWVDEECVTDKGVVTSRKPDDLPAFNKKIVEEFAEGDHSSRRK”: “soluble”.
With “MTKFESSVKVIPYSQERVYEKLADLSNLEAIKDRLPEDKVKNMSFDTDTLSFNVDPVGQLTLRIIEREPSKCIKFETTNSPLPFNMWIQLVAVSEEECKLKVTIGLEINPFMKAMVQKPLNEGLEKMADMLSMIQYLEHHHHHH” the entry was “soluble”; with “MTKFIGCIDLHNGEVKQIVGGTLTSKKEDVPKTNFVSQHPSSYYAKLYKDRDVQGCHVIKLGPNNDDAAREALQESPQFLQVGGGINDTNCLEWLKWASKVIVTSWLFTKEGHFQLKRLERLTELCGKDRIVVDLSCRKTQDGRWIVAMNKWQTLTDLELNADTFRELRKYTNEFLIHAADVEGLCGGIDELLVSKLFEWTKDYDDLKIVYAGGAKSVDDLKLVDELSHGKVDLTFGSSLDIFGGNLVKFEDCCRWNEKQG”, “soluble”.
The same measure for “MTKFVAKKAILLLSLLLLGTAESKPLDAEQQHIDDQHVRKERQLKMAGSADPDVKMVANVTPATGSQPMSMTMGVPMNQMALSSVGGQLVRYPNYPGLIYPGLAPAPGLNGVPGLQTNIANNYPSYPDPNLTGSVPGFNPFGSFGYPGVAPMYGNSLMYPNPQLPNGFVPNPAVDNFQSLNNIVNMANVQGLAGGSSGIYPAPQGFGGVSPGLYPAPQGFGGANPGLYPAPQVNMQGLYPPSGGFLERMNMQGYAPGFLEHHHHHH”: “not soluble”.
Turning to “MTKIFIRDDNGGTEMSQDPFQEREAEKYANPIPSREFILEHLTKREKPASRDELAVELHIEGEEQLEGLRRRLRAMERDGQLVFTRRQCYALPERLDLVKGTVIGHRDGYGFLRVEGRKDDLYLSSEQMKTCIHGDQVLAQPLGADRKGRREARIVRVLVPKTSQIVGRYFTEAGVGFVVPDDSRLSFDILIPPDQIMGARMGFVVVVELTQRPTRRTKAVGKIVEVLGDNMGTGMAVDIALRTHEIPYIWPQAVEQQVAGLKEEVPEEAKAGRVDLRDLPLVTIDGEDARDFDDAVYCEKKRGGGWRLWVAIADVSYYVRPSTPLDREARNRGTSVYFPSQVIPMLPEVLSNGLCSLNPQVDRLCMVCEMTVSSKGRLTGYKFYEAVMSSHARLTYTKVWHILQGDQDLREQYAPLVKHLEELHNLYKVLDKAREERGGISFESEEAKFIFNAERRIERIEQTQRNDAHKLIEECMILANISAARFVEKAKEPALFRIHDKPSTEAITSFRSVLAELGLELPGGNKPEPRDYAELLESVADRPDAEMLQTMLLRSMKQAIYDPENRGHFGLALQSYAHFTSPIRRYPDLTLHRAIKYLLAKEQGHQGNTTETGGYHYSMEEMLQLGQHCSMAERRADEATRDVADWLKCDFMLDQVGNVFKGVISSVTGFGFFVRLDDLFIDGLVHVSSLDNDYYRFDQVGQRLMGESSGQTYRLGDRVEVRVEAVNMDERKIDFSLISSERAPRNVGKTAREKAKKGDAGKKGGKRRQVGKKVNFEPDSAFRGEKKTKPKAAKKDARKAKKPSAKTQKIAAATKAKRAAKKKVAELEHHHHHH”, the “soluble on expression in E. coli” value is “soluble”.
The same measure for “MTKIIPVASGKGGVGKTSFVANVGYKLSSLGKTVILVDLDLGGSNLHTCLGVKNKGVGIGSFINKKSKSFSDLVCKTSYDKLYLIPGDALYTGTANLPFSIKKKIIESIQKDLIADFIFLDLGSGTSYNTIDFYLASYSGVIVTIPETPSILNAYSFLKNALYRLLYLGFPQKSPERDYIGNFFKDKIEGTNLGFKDLVVGIELISLSSSLKVKRMMNNFYPRVVLNRIETSEEIAMCENLINVVKNNINIPIEFIGFVPFAKSFREAINNRVPFIDFEKNSKLNKYFEFIAGNLIKSPIEGSPYIYDDIYDMIKDQSRFIRKLEHHHHHH”: “soluble”; for “MTKKYSRFLPSEKSFNIDNFPYYWVTQVHSQYVHNIDNVLKRYGLDNSRRRILLALNIKQNASVSELSEMIISKMSTTTKIVYRLKDEGFVNTYSCENDARITRVNLTEQGKEMIHKINSLTGAVLEQSFEGLTPLQIEKMIDGLKIIFKNLSS”: “not soluble”.
“MTKMLKLFDAHFHIIDYRFPLITNQSYLPPEFTVEDYLQRAKPLNICGGAVVSGSFQAFDQSYLLAALSILGSDFVGVTQLPATVSDEEIIQLNQKGIRAVRFNVKRGGSENIHRLKYFAHRIYEMVRWHVEIYVDSKDLGDLTSLLLELPAVSIDHLGLSHSGFSQLLHLVEHGIKIKASGFGRVDFDVKKALQTIAQINPDALLFGTDLPSTRAPRPFLDSDIQIIQDLFDEKLTEKILYRNARNFYSKNSSELEHHHHHH”: the “soluble on expression in E. coli” value was “not soluble”.
The same measure for “MTKNLLVELGLEELPAYVVTPSEKQLGEKMAAFLKGKRLSFEAIQTFSTPRRLAVRVTGLADKQSDLTEDFKGPAKKIALDSDGNFTKAAQGFVRGKGLTVEDIEFREIKGEEYVYVTKEEIGQAVEAIVPGIVDVLKSLTFPVSMHWAGNSFEYIRPVHTLTVLLDEQEFDLDFLDIKGSRVSRGHRFLGQETKIQSALSYEEDLRKQFVIADPCEREQMIVDQIKEIEAKHGVRIEIDADLLNEVLNLVEYPTAFMGSFDAKYLEVPEEVLVTSMKEHQRYFVVRDQDGKLLPNFISVRNGNAERLKNVIKGNEKVLVARLEDGEFFWREDQKLVISDLVEKLNNVTFHEKIGSLREHMIRTGQITVLLAEKASLSVDETVDLARAAAIYKFDLLTGMVGEFDELQGIMGEKYTLLAGETPAVAAAIREHYMPTSAEGELPESKVGAVLAIADKLDTILSFFSVGLIPSGSNDPYALRRATQGVVRILDAFGWHIAMDELIDSLYALKFDSLTYENKAEVMDFIKARVDKMMGSTPKDIKEAVLAGSNFV”: “not soluble”.
With “MTKPLILASQSPRRKELLDLLQLPYSIIVSEVEEKLNRNFSPEENVQWLAKQKAKAVADLHPHAIVIGADTMVCLDGECLGKPQDQEEAASMLRRLSGRSHSVITAVSIQAENHSETFYDKTEVAFWSLSEEEIWTYIETKEPMDKAGAYGIQGRGALFVKKIDGDYYSVMGLPISKTMRALRHFDIRA” the entry was “soluble”; with “MTKPVVDVKNVQKVYGKKGENQSHALKGVSFSIQEGEFVGIMGPSGSGKTTLLNVISTLDKATGGVVEIAGTDITKMKQGELSDFRSQKLGFIFQDFNLLENLSIYENIALPLSLQGVPSRNIGPKVEKVADMLGISAILQKYPSEVSGGQKQRSAAARALVHEPAIILGDEPTGALDSKNATSLLDAMTNLNQEQGVSIMMVTHDPFSASYCQRILFIQDGELYKEIHRGGTREEFYKEILDVLADLGTQKA”, “not soluble”.
